This note sets out measurements from paper PMC4609182 (The EMBO Journal, 2015).

Positions count from the first letter of the chain named. Numbers in names are those of the source.

To fix the notation:
B1: R314A Parkin R0RBR (domain or fragment, rat)
chain: PTYHSFFVYCKGPCHKVQPGKLRVQCGTCRQATLTLAQGPSCWDDVLIPNRMSGECQSPDCPGTRAEFFFKCGAHPTSDKDTSVALNLITNNSRSIPCIACTDVRNPVLVFQCNHRHVICLDCFHLYCVTRLNDRQFVHDAQLGYSLPCVAGCPNSLIKELHHFRILGEEQYNAYQQYGAEECVLQMGGVLCPRPGCGAGLLPEQGQKKVTCEGGNGLGCGFVFCRDCKEAYHEGECDSMFEASGATSQAYRVDQRAAEQARWEEASKETIKKTTKPCPRCNVPIEKNGGCMHMKCPQPQCKLEWCWNCGCEWNRACMGDHWFDV
B2: R334A Parkin R0RBR (domain or fragment, rat)
chain: B1 chain with A174R, R194A
B3: K369A Parkin R0RBR (domain or fragment, rat)
chain: B1 chain with A174R, K229A
B4: R271A Parkin R0RBR (domain or fragment, rat)
chain: B1 chain with R131A, A174R
B5: K161N Parkin R0RBR (domain or fragment, rat)
chain: B1 chain with K21N, A174R
B6: R275A Parkin R0RBR (domain or fragment, rat)
chain: B1 chain with R135A, A174R
B7: W403A Parkin R0RBR (domain or fragment, rat)
chain: B1 chain with A174R, W263A
B8: Parkin R0RBR module (RING0, RING1, IBR, RING2), wild type (domain or fragment, rat)
chain: B1 chain with A174R
B9: Phosphorylated Parkin (phospho-Ser65 in the Ubl domain) (enzyme, rat, UniProt Q9JK66 1-465, looked up)
chain: MIVFVRFNSSYGFPVEVDSDTSIFQLKEVVAKRQGVPADQLRVIFAGKELQNHLTVQNCDLEQQSIVHIVQRPQRKSHETNASGGDKPQSTPEGSIWEPRSLTRVDLSSHILPADSVGLAVILDTDSKSDSEAARGPEAKPTYHSFFVYCKGPCHKVQPGKLRVQCGTCRQATLTLAQGPSCWDDVLIPNRMSGECQSPDCPGTRAEFFFKCGAHPTSDKDTSVALNLITNNSRSIPCIACTDVRNPVLVFQCNHRHVICLDCFHLYCVTRLNDRQFVHDAQLGYSLPCVAGCPNSLIKELHHFRILGEEQYNRYQQYGAEECVLQMGGVLCPRPGCGAGLLPEQGQKKVTCEGGNGLGCGFVFCRDCKEAYHEGECDSMFEASGATSQAYRVDQRAAEQARWEEASKETIKKTTKPCPRCNVPIEKNGGCMHMKCPQPQCKLEWCWNCGCEWNRACMGDHWFDV
modifications: phosphoserine at 65
B10: Full-length L266K Parkin (enzyme, rat, UniProt Q9JK66 1-465, looked up)
chain: B9 chain with L266K
B11: Full-length Parkin, unmodified (enzyme, rat, UniProt Q9JK66 1-465, looked up)
chain: B9 chain
B12: H302A Parkin R0RBR (domain or fragment, rat)
chain: B1 chain with H162A, A174R
B13: W403A Parkin (enzyme, rat, UniProt Q9JK66 1-465, looked up)
chain: B9 chain with W403A

The target of the first assay is His-tagged phosphorylated ubiquitin (UniProt P0CG48 1-76, phosphoserine at 65). In words: pull-down; 1 nmol His-tagged pUb on Ni-NTA resin, 15 min with 1 nmol R0RBR variant; TBS, 2 mM BME, 0.02% Igepal 630; SDS–PAGE, Coomassie. The conditions noted are these: both partners purified.
On to B1, for which the binding result was “binds”. The same measure, in the same setting: the entry for B2 is “binds”; for B3 it is “binds”. B4: the binding result is recorded as “binds”. Still for that read-out and setting: the entry for B5 is “binds”; for B6 it is “binds”.

For another assay, the target named is T1, UbcH7 (E2 ubiquitin-conjugating enzyme) (UniProt P68036 1-154). In words: ITC; Parkin constructs titrated with UbcH7; 20°C; 50 mM Tris–HCl pH 7.4, 150 mM NaCl, 1 mM TCEP; stoichiometry fixed to 1:1. The note with it: both partners purified.
T1 sequence (P68036 whole entry): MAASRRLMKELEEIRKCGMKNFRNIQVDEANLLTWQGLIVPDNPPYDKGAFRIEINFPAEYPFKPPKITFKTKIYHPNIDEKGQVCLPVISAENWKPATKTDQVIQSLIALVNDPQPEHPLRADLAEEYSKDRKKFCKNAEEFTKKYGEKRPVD
By Kd is commonly meant the equilibrium constant for the complex coming apart. Read a high Kd as a looser complex. B7: the Kd stood at 119000 nM.

For B8, the Kd was greater than 700000 nM.

For a further assay, the target named is Phosphorylated ubiquitin (phospho-Ser65 ubiquitin) (UniProt P0CG48 1-76, phosphoserine at 65). The assay is described as follows: ITC; Parkin constructs titrated with pUb; 20°C; 50 mM Tris–HCl pH 7.4, 150 mM NaCl, 1 mM TCEP; stoichiometry determined experimentally. The conditions noted are these: both partners purified. (In general: ITC needs no label: the signal is the heat of the interaction.)
Take B9: the affinity, expressed as Kd, was 17 nM. In other words, the double-digit nanomolar range.

Molecule B10 gave a Kd of 37 nM. With B11, the dissociation constant Kd was 431 nM. For B12, the Kd was determined as 1330 nM. Same read-out and setting: the figure for B8 is 22 nM.

The target of another assay is T1, UbcH7 (E2 ubiquitin-conjugating enzyme). In words: NMR titration; 15N-UbcH7 with unlabeled Parkin constructs with or without pUb; 1H-15N correlation spectra, 293 K; 20 mM Tris–HCl, 120 mM NaCl, 2 mM DTT, pH 7.4; binding read as loss of signals. The conditions noted are these: both partners purified.
Take B13: the binding result is reported as “binds”.
